The record followed here is patent US20150037277A1.

Common to all, as to experiment: ELISA, plate coated with OVA-peptide conjugate, adjuvant-only control egg antibody, dilution not stated
The target of experiment [1] is IL-10 Peptide #1 (SEQ ID NO: 1) conjugated to hen ovalbumin (Chicken, quail, turkey; hen) (UniProt P01012).
Experiment [2] deals with IL-10 Peptide #3 (SEQ ID NO: 4) conjugated to hen ovalbumin (Chicken, quail, turkey; hen) (UniProt P01012).
Experiment [3] addresses IL-10 Peptide #4 (SEQ ID NO: 5) conjugated to hen ovalbumin (Chicken, quail, turkey; hen) (UniProt P01012).

“adjuvant only injected control egg antibody”: the results for the optical density in experiment [1], in experiment [2] and in experiment [3] were 0.562 OD at 450 nm, 0.499 OD at 450 nm and 0.6 OD at 450 nm, respectively.
